Our source for the self-aminoacylation values is the supplement of paper PMC9233669.

The test system of data set [1] is biotinyl-Phe-oxazolone. Put plainly: self-aminoacylation, catalytic enhancement (BFO) (fold over background); higher = more active; k-Seq, kA / k0A0; sequences stand for … in GGGAAUGGAUCCACAUCUACGAAUUC…UUCACUGCAGACUUGACGAAGCUG
An outline of the steps: (§1)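 Each biotinyl-aminoacyl-oxazolone, at 2–1250 μM, was incubated with mutagenized RNA pools (0.43 μM) carrying a 21-nt variable region. The 50 μL reactions contained HEPES/NaCl/KCl/MgCl2/CaCl2 buffer with 5% acetonitrile at pH 6.9–7.0 and ran for 90 minutes at room temperature. After streptavidin capture, RNA was measured by qPCR in triplicate and by Illumina sequencing, and catalytic enhancement was calculated as median kA over the uncatalyzed rate from a pseudo-first-order fit of per-sequence fraction reacted.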

Data set [2] relates to biotinyl-Ile-oxazolone. Put plainly: self-aminoacylation, catalytic enhancement (BIO) (fold over background); higher = more active; k-Seq, kA / k0A0; sequences stand for … in GGGAAUGGAUCCACAUCUACGAAUUC…UUCACUGCAGACUUGACGAAGCUG
The procedure, abridged: as §1

For data set [3], the system named is biotinyl-Met-oxazolone. Put plainly: self-aminoacylation, catalytic enhancement (BMO) (fold over background); higher = more active; k-Seq, kA / k0A0; sequences stand for … in GGGAAUGGAUCCACAUCUACGAAUUC…UUCACUGCAGACUUGACGAAGCUG
The procedure, abridged: as §1

The test system of data set [4] is biotinyl-Val-oxazolone. Put plainly: self-aminoacylation, catalytic enhancement (BVO) (fold over background); higher = more active; k-Seq, kA / k0A0; sequences stand for … in GGGAAUGGAUCCACAUCUACGAAUUC…UUCACUGCAGACUUGACGAAGCUG
The procedure, abridged: as §1

The test system of data set [5] is biotinyl-Leu-oxazolone. Put plainly: self-aminoacylation, catalytic enhancement (BLO) (fold over background); higher = more active; k-Seq, kA / k0A0; sequences stand for … in GGGAAUGGAUCCACAUCUACGAAUUC…UUCACUGCAGACUUGACGAAGCUG
The procedure, abridged:
as §1

Data set [6] has as its system biotinyl-Trp-oxazolone. Put plainly: self-aminoacylation, catalytic enhancement (BWO) (fold over background); higher = more active; k-Seq, kA / k0A0; sequences stand for … in GGGAAUGGAUCCACAUCUACGAAUUC…UUCACUGCAGACUUGACGAAGCUG
An outline of the steps:
as §1

Fewer inactive variants are shown than the library holds.

For the sequence “AUUCACAUACGUCAUCGGGUG [Fam2.2 aminoacylation ribozyme variant]”, the self-aminoacylation in data set [1] was found to be 53.4; in data set [2] it was 4.62; in data set [3], 7.22; in data set [4] it was 4.19; in data set [5], 9.26; in data set [6], 6.74.

With “AUUCACCUAGGUCAUCGUGUU [Fam2.2 aminoacylation ribozyme variant]”, the self-aminoacylation is 0.729 in data set [1]; 0.899 in data set [2]; 0.887 in data set [3]; 0.73 in data set [4]; 0.905 in data set [5]; 1.62 in data set [6].

In the case of “UAGUUUGGUAAUAGUCGCAAG [Fam3.1 aminoacylation ribozyme variant]”, the self-aminoacylation was found to be 2.29 in data set [1]; 1.73 in data set [2]; 1.74 in data set [3]; 1.57 in data set [4]; 1.81 in data set [5]; 1.96 in data set [6].

For “AGUCACCUAGGUCAUUGGGUG [Fam2.2 aminoacylation ribozyme variant]”, the self-aminoacylation stood at 25.8 in data set [1]; 3.03 in data set [2]; 4.22 in data set [3]; 3.26 in data set [4]; 4.04 in data set [5]; 3.42 in data set [6].

As for “AAGUUUGCCAAUAGACGCAAG [Fam3.1 aminoacylation ribozyme variant]”, the self-aminoacylation in data set [1] came to 0.674; in data set [2] it was 0.591; in data set [3], 0.625; in data set [4], 0.664; in data set [5], 0.562; in data set [6] it was 0.482.

For the sequence “CUACUUCAAUCAAUCGGUCUG [Fam1A.1 aminoacylation ribozyme variant]”, the self-aminoacylation stood at 31.7 in data set [1]; 1.01 in data set [2]; 1.04 in data set [3]; 1.03 in data set [4]; 1.44 in data set [5]; 17.9 in data set [6].

Take “CAACUUCAAACAGUCGGUCUG [Fam1A.1 aminoacylation ribozyme variant]”: the self-aminoacylation came to 5.76 in data set [1]; 1.21 in data set [2]; 1.2 in data set [3]; 1.19 in data set [4]; 1.08 in data set [5]; 0.928 in data set [6].

Regarding “AUUACCCUGAUCAUCGCGUGA [Fam2.1 aminoacylation ribozyme variant]”, the self-aminoacylation in data set [1] turned out to be 99.5; in data set [2], 5.83; in data set [3], 14.7; in data set [4] it was 7.01; in data set [5], 14.1; in data set [6], 14.9.

Take “CUUCUUCAAACAAUCGGUCAG [Fam1A.1 aminoacylation ribozyme variant]”: the self-aminoacylation in data set [1] was found to be 5.5; in data set [2] it was 0.818; in data set [3], 0.655; in data set [4], 0.734; in data set [5] it was 0.623; in data set [6], 2.59.

On to “CCUCACUUCAAGCAAUCGGUU [Fam1B.1 aminoacylation ribozyme variant]”, for which the self-aminoacylation turned out to be 9.36 in data set [1]; 1.34 in data set [2]; 1.45 in data set [3]; 1.61 in data set [4]; 1.7 in data set [5]; 6.83 in data set [6].

As for “CCACACUUCAAGCAAUCUGCC [Fam1B.1 aminoacylation ribozyme variant]”, the self-aminoacylation in data set [1] turned out to be 0.603; in data set [2], 0.806; in data set [3] it was 1.3; in data set [4] it was 1.05; in data set [5], 0.787; in data set [6], 0.628.

“AUUACCCUGGUCAUCGAGUGC [Fam2.1 aminoacylation ribozyme variant]”: the self-aminoacylation turned out to be 24.9 in data set [1]; 3.92 in data set [2]; 11.4 in data set [3]; 4.71 in data set [4]; 10.9 in data set [5]; 8.98 in data set [6].

Consider “AUGCACCAAGGUCAUCGGGUG [Fam2.2 aminoacylation ribozyme variant]”, for which the self-aminoacylation in data set [1] turned out to be 59.9; in data set [2], 4.95; in data set [3] it was 7.84; in data set [4] it was 5.23; in data set [5] it was 9.2; in data set [6], 9.96.

On to “CGACACUACAAGCAAUCGGUC [Fam1B.1 aminoacylation ribozyme variant]”, for which the self-aminoacylation in data set [1] is 0.638; in data set [2], 0.935; in data set [3] it was 0.769; in data set [4], 1; in data set [5] it was 0.755; in data set [6], 0.675.

With “CUAGUUCAAACGAUCGGUCUG [Fam1A.1 aminoacylation ribozyme variant]”, the self-aminoacylation in data set [1] worked out at 0.559; in data set [2] it was 0.782; in data set [3] it was 0.812; in data set [4], 0.794; in data set [5], 0.844; in data set [6], 0.58.

Consider “AUGUUUGCUAGUAGUCGCAAG [Fam3.1 aminoacylation ribozyme variant]”, for which the self-aminoacylation in data set [1] is 1.15; in data set [2], 0.957; in data set [3] it was 1.15; in data set [4], 0.827; in data set [5], 0.911; in data set [6] it was 0.975.

On to “AUUACGCUGGUAAUCGAGUGA [Fam2.1 aminoacylation ribozyme variant]”, for which the self-aminoacylation amounted to 18.7 in data set [1]; 2.84 in data set [2]; 5.48 in data set [3]; 2.77 in data set [4]; 5.76 in data set [5]; 7.02 in data set [6].

On to “CCAGACUUCAAGCAAUCGAUC [Fam1B.1 aminoacylation ribozyme variant]”, for which the self-aminoacylation in data set [1] is 1.51; in data set [2] it was 0.714; in data set [3], 0.559; in data set [4], 0.778; in data set [5] it was 0.614; in data set [6] it was 0.639.

“CCACACUUCCUGCAAUCGGUC [Fam1B.1 aminoacylation ribozyme variant]”: the self-aminoacylation stood at 0.777 in data set [1]; 1.04 in data set [2]; 0.859 in data set [3]; 1.19 in data set [4]; 1.11 in data set [5]; 0.961 in data set [6].

For “CUACUUCAAGCAAUCGGUAUG [Fam1A.1 aminoacylation ribozyme variant]”, the self-aminoacylation in data set [1] turned out to be 8.16; in data set [2], 0.94; in data set [3], 1.07; in data set [4], 0.963; in data set [5], 1.02; in data set [6], 4.52.

Regarding “AUCACCCUGGUCGUCGAGUGA [Fam2.1 aminoacylation ribozyme variant]”, the self-aminoacylation stood at 5.78 in data set [1]; 1.24 in data set [2]; 1.39 in data set [3]; 1.31 in data set [4]; 2.67 in data set [5]; 1.41 in data set [6].

On to “CCACACUUAAAGCAAUCGGCC [Fam1B.1 aminoacylation ribozyme variant]”, for which the self-aminoacylation in data set [1] stood at 7.34; in data set [2] it was 1.72; in data set [3] it was 1.71; in data set [4], 1.97; in data set [5] it was 2.15; in data set [6], 1.7.

As for “CUACUUAAAACAAUAGGUCUG [Fam1A.1 aminoacylation ribozyme variant]”, the self-aminoacylation in data set [1] turned out to be 0.984; in data set [2], 0.928; in data set [3], 1.15; in data set [4], 0.934; in data set [5], 0.893; in data set [6] it was 0.747.
